Measured values from US12599645B2, “Antibodies which bind to lysophosphatidic acid receptor 1 (LPAR1)” (DJS ANTIBODIES LTD, priority 2021, dated 2026).

What was measured:
[1] = design: species or system Sprague Dawley rats; details: rat, in vivo, iv, 3 mg/kg
Procedure: The rat pharmacokinetics study was carried out in male Sprague Dawley rats (275-325 g). Rats received an IV slow bolus (3 mg/kg) of test antibody. Blood samples were taken at the following time-points: pre-dose, 2 min, 1 hour, 3 hours, 6 hours, 24 hours, 48 hours, 96 hours, 7 days, 14 days and 21 days after dosing. For each animal and for each blood sampling, 200 μL venous blood was obtained from the sublingual vein under isoflurane anaesthesia in K2EDTA vials. The blood samples were gently mixed, placed immediately on crushed ice and centrifuged within 30 min of sampling at approximately 1500×g for approximately 10 min at approximately 4° C. For each blood sample, the resulting plasma was separated into 2 aliquots of 30 μL and transferred, using disposable plastic material, into polypropylene tubes with conical bottom and stored at −80° C. until analysis by capture ELISA. Plates were coated overnight with 1 μg/mL capture IgG before washing and blocking with 3% (w/v) milk the next morning for 2 hours. […] Absorbance was measured on a plate reader at 450 nm. Antibody concentrations were calculated using interpolation off a standard curve constructed for each individual test IgG in Prism 5 (GraphPad Software, CA, USA). Interpolated data was analysed using Phoenix WinNonlin® version 8.1 (Certara USA, Inc., Princeton, NJ) to extract relevant PK parameters. […]

Irrelevant GPCR = experiment: Transient-transfection CIFAT, irrelevant GPCR control (fixed and live cells); assay type: binding; details: cells expressing irrelevant GPCR
Procedure: (§1) Anti-LPAR1 antibodies of the invention were tested alongside commercially available anti-LPAR1 antibodies in the transient-transfection CIFAT assay for live cells (method 1.11) and in the transient-transfection CIFAT assay for fixed cells (method 1.11).
The results are shown in FIGS. 11 and 12, wherein the scale bar represents 100 μm.

LPAR1 [2] = target: T1, LPAR1 (Homo sapiens, UniProt Q92633); experiment: LPAR1 binding affinity during discovery and affinity maturation, method not stated; design: expressed in transfected cells; details: stated in words
T1 sequence (Q92633 whole entry): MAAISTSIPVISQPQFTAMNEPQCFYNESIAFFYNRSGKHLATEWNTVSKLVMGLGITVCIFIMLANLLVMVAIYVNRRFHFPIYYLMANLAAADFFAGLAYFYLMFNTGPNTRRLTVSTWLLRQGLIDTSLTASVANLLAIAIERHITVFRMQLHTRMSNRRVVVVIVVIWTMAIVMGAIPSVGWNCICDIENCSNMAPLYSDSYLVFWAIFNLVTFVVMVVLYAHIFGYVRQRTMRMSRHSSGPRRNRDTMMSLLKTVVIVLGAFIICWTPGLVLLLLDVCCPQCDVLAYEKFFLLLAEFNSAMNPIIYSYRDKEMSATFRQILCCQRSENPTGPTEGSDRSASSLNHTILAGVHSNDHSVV

LPAR1 [3] = target: T1, LPAR1; experiment: BRET assay (G protein activation and βArrestin 2 biosensors); assay type: cell-based; design: expressed in transfected cells; host or cells: HEK293 (transient, PEI); details: G13 biosensor
Procedure: Using polyethylenimine (PEI) transfection agent at a 3:1 ratio, HEK293 cells were co-transfected in suspension with hLPAR1 and one of the following biosensors: G protein activation sensors (Gαi2, Gα13, and Gαq) and the βArrestin 2-PM recruitment biosensor (+GRK2). Cells were directly seeded in 96-well plates immediately following transfection at a density of 35,000 cells/well. 48 hours post-transfection, BRET experiments were performed in both agonist and allosteric/antagonist mode. Using a plate washer, culture medium was aspirated and replaced with 30 μl of Hank's Balanced Salt Solution buffer (HBSS). Plates were equilibrated at room temperature for 60 minutes. For agonist testing, serial dilutions of the antibodies were performed in PBS and then added to each well. Antibodies were assayed at 12 concentrations in technical duplicates. Small molecules were added to each relevant well. Small molecules were assayed at 22 concentrations with each biosensor. Cells were then incubated with the antibodies or small molecules at room temperature for 60 or 10 minutes, respectively. 10 μl of 10 μM e-Coelenterazine Prolume Purple (Nanolight) was then added to each well. Cells were incubated at room temperature for an additional 10 minutes. BRET readings were then collected with a 0.4 sec integration time on a plate reader (filters: 400 nm/70 nm, 515 nm/20 nm). For allosteric testing (after agonist testing), an EC75 of the endogenous ligand (oleoyl-LPA) was added to each well already containing antibody or small molecule. Cells were incubated at room temperature for an additional 10 minutes. BRET readings were then collected with a 0.4 sec integration time on a plate reader (filters: 400 nm/70 nm, 515 nm/20 nm). BRET signals were determined by calculating the ratio of light emitted by GFP-acceptor (515 nm) over light emitted by luciferase-donor (400 nm). All BRET ratios were standardized with pre-established BRET values for positive and negative controls. The standardized BRET ratio is referred to as universal BRET (uBRET). Resulting dose-response curves were fitted using the three- or four-parameter logistic non-linear regression model in GraphPad Prism 9.
The inhibition characteristics of Antibody 12 were investigated by Bioluminescence Resonance Energy Transfer (BRET, method 1.15) and compared to a small molecule LPAR1 inhibitor of the prior art (BMS-986020), see FIG. 13. The upper lines are values recorded with LPA present and the lower lines are values recorded with LPA not present. […] This can only happen if the ligand (LPA) is also interacting with the receptor at the same time to enable some signalling. […]

LPAR1 [4] = target: T1, LPAR1; experiment: Transient-transfection CIFAT, live cells; assay type: binding; design: HA; expressed in transfected cells; host or cells: CHO-K1 (transient, PEI); details: 5 μg/mL or 20 μg/mL
Procedure: CHO-K1 cells are seeded in multi well plates at 20,000 cells per 200 μL full growth medium and incubated for 24 hours at 37° C. In a sterile tube, 0.0309 uL/well PEI is diluted into 10 uL/well transfection medium (DMEM supplemented with 2 mM L-glutamine and Penicillin-Streptomycin). The diluted PEI is added to 100 ng/well DNA, before mixing immediately and incubating the mixture for 10 minutes at room temperature. 200 μL/well full growth medium is added to the PEI-DNA mixture, then medium in wells is taken off and 200 ul full growth medium/PEI/DNA mixture is added in the wells of the adherent cell plate. The plate is incubated for 24 hours at 37° C. The medium is discarded and replaced with 200 μL full growth medium. The plate is incubated for 24 hours at 37° C. Medium is removed from the wells and the cells incubated with primary antibody at varying concentrations for 75 minutes at 37° C. After washing and cell fixation with 4% PFA, the binding of the antibodies is detected using a goat anti-human detection antibody, incubated for 1 hour at room temperature. Fluorescence at 488 nm is measured.
CHO-K1 cells were seeded in clear 96-well plates at 20,000 cells per 200 μL full growth medium and incubated for 24 hours at 37° C. The following day, in a sterile tube, 0.0309 uL/well PEI (Generon, MW 160,000) was diluted into 10 uL/well transfection medium (DMEM supplemented with 2 mM L-glutamine and Penicillin-Streptomycin). The diluted PEI was added to 100 ng/well DNA encoding the target protein (human LPAR1 (SEQ ID NO: 62) unless otherwise stated), before vortexing immediately and incubating the mixture for 10 minutes at room temperature. 200 μL/well full growth medium was added to the PEI-DNA mixture, then medium in wells was taken off and 200 ul full growth medium/PEI/DNA mixture was added in the wells of the adherent cell plate. The plate was incubated for 24 hours at 37° C. The next day, the medium was discarded and replaced with 200 μL full growth medium. The plate was incubated for 24 hours at 37° C. The following day, medium was removed from the wells and the cells incubated with primary antibody at varying concentrations for 75 minutes at 37° C. After washing and cell fixation with 4% PFA, the binding of the antibodies was detected using a goat anti-human Alexa Fluor 488 detection antibody (Invitrogen), incubated for 1 hour at room temperature. Fluorescence at 488 nm was measured using a BMG LABTECH ClarioStar plate reader and microscopy images were taken at 10× magnification.
as §1

LPAR1 [5] = target: T1, LPAR1; experiment: Transient-transfection CIFAT, fixed/permeabilised cells; assay type: binding; design: HA; expressed in transfected cells; host or cells: CHO-K1 (transient, PEI); details: 5 μg/mL
[6] = Dose range-finding toxicity study, liver histopathology; assay type: in vivo; details: cynomolgus
Procedure: A dose range-finding study was carried out to determine the potential toxicity of Antibody 17 when given by the intravenous (infusion) route to cynomolgus monkeys. The test item, Antibody 17, was administered to 8 animals via intravenous infusion (30 minutes) on Day 1 (Group 1) or on Days 1, 8 and 15 (Groups 2 to 4). Animals were split by sex, allocated into 4 groups and dosed with Antibody 17 at 10, 33 or 100 mg/kg/day.
A complete gross pathological examination, organ weight recording and microscopic evaluation were performed on the six animals that were given 3 doses of Antibody 17 (Groups 2 to 4) two days after the third dose.

[7] = test system: renal fibrosis after UUO surgery; experiment: Unilateral ureteral obstruction (UUO) efficacy model of renal fibrosis; assay type: in vivo, Hartley guinea pigs; details: Study 2
Procedure: Unilateral ureteral obstruction (UUO) is a well-characterized disease model for renal fibrosis. The UUO model encompasses key pathophysiological features of chronic kidney disease; tubular necrosis and inflammatory cell infiltration within a relatively short period.
Two unilateral ureteral obstruction (UUO) model efficacy studies were carried out in six-week old female Hartley guinea pigs. On Day 0, UUO surgery was performed. BMS-986020 was administered orally at a dose level of 30 mg/kg in a volume of 5 mL/kg twice daily at from Day −1 to 9. Isotype control and anti-LPAR1 antibody was intraperitoneally administered at a dose level of 6 mg/kg (low) or 20 mg/kg (high) in a volume of 10 mL/kg at Day −1, Day 0, Day 3 and Day 6. The viability, clinical signs, behaviour and individual body weight was monitored daily.
The animals were sacrificed at Day 10. The ligated left kidney and right kidney weight were measured at sacrifice.
Hydroxyproline is an amino acid, making up around 14% of collagen and acts as an important indicator of the severity of fibrosis. To quantify kidney hydroxyproline content, frozen posterior right section of left kidney samples were processed by an alkaline-acid hydrolysis method. AC buffer (2.2M acetic acid/0.48M citric acid) was added to the samples, followed by centrifugation to collect the supernatant. A standard curve of hydroxyproline was constructed with serial dilutions of trans-4-hydroxy-L-proline (Sigma-Aldrich, USA) starting at 16 μg/mL. The prepared samples and standards were mixed with chloramine T solution (Nacalai Tesque Inc., Japan) and incubated for 25 minutes at room temperature. The samples were then mixed with Ehrlich's solution and heated at 65° C. for 20 minutes to develop the colour. After samples were cooled on ice and centrifuged to remove precipitates, the optical density of each supernatant was measured at 560 nm. The concentrations of hydroxyproline were calculated from the hydroxyproline standard curve. Protein concentrations of kidney samples were determined using a BCA protein assay kit (Thermo Fisher Scientific, USA) and used to normalize the calculated hydroxyproline values. Kidney hydroxyproline contents were expressed as μg per mg protein.
The left kidney was fixed in Bouin's solution and embedded in paraffin. For PAS staining, sections were cut from paraffin blocks and stained with Schiff's reagent (FUJIFILM Wako pure chemical corporation, Japan) according to the manufacturer's instructions. To visualize collagen deposition, kidney sections were stained using picro-Sirius red solution (FUJIFILM Wako pure chemical corporation). For quantification of interstitial and medulla fibrosis area, bright field images in the corticomedullary region were captured using a digital camera (DFC295) at 200-fold magnification, and the positive areas in 5 fields/section were measured using ImageJ software (National Institute of Health, USA).

[8] = IV infusion, 10, 33 or 100 mg/kg/day

Molecule	mean Cmax [1] [µg/mL]	Irrelevant GPCR cell staining (Irrelevant GPCR)	binding affinity for LPAR1 (LPAR1 [2])	mode of inhibition (LPAR1 [3])	inhibition with LPA present compared to the system where LPA is absent (LPAR1 [3]; even at high concentrations)	LPAR1 live cell staining (LPAR1 [4])	LPAR1 fixed cell staining (LPAR1 [5])	histopathology findings ([6]; 3 doses (Days 1, 8 and 15), two days after the third dose)	adverse effects throughout the study [6, 8]	tolerability at the injection sites [6, 8]	unscheduled deaths [6, 8]	histological picrosirius staining [7]	kidney hydroxyproline ([7]; BMS-986020 30 mg/kg oral vs vehicle, antibody 20 mg/kg (high) i.p. vs isotype antibody)
Antibody 12: LCDR2 mutation T56D; VH SEQ ID NO: 36, VL SEQ ID NO: 38 (antibody, V domains shown) VH: QVQLVQSGSELKKPGASVKVSCKASGYTFTSSGISWVRQAPGQGLEWMGEILPRSGYTNYNQGFTGRFVFSADKSVSTAYLQISSLKAEDTAVYYCARDFKGGRYAMDYWGQGTTVTVSS VL: SIQMTQSPSSLSASVGDRVTITCQASQSVRYNVAWYQQKPGKAPKLLIYYASNRYDGVPSRFSGSGSGTDFTFTISSLQPEDIATYFCQHHYSSPLTFGGGTKLEIK	217.5	Irrelevant GPCR-No significant cell staining	minimal effect on affinity	acting allosterically	does not deliver equivalent inhibition	LPAR1-Significant fixed and live cell staining	LPAR1-Significant fixed and live cell staining	–	–	–	–	–	–
Antibody 17: Optimised antibody; VH SEQ ID NO: 102, VL SEQ ID NO: 99 (antibody, V domains shown) VH: QVQLVQSGSELKKPGASVKVSCKASGYTFTSSGISWVRQAPGQGLEWMGEIQPRSGYTNYNQGFTGRFVFSADKSVSTAYLQISSLKAEDTAVYYCARDKGPARYTMDYWGQGTTVTVSS VL: SIQMTQSPSSLSASVGDRVTITCQASQSVRYNVAWYQQKPGKAPKLLIYYASNRYEGVPSRFSGSGSGTDFTFTISSLQPEDIATYFCQHHYSSPLTFGGGTKLEIK	143.8	–	–	–	–	–	–	no adverse findings	No adverse effects	well tolerated	no unscheduled deaths	No observable difference	significant reduction in hydroxyproline
